Assays:
[1] = target: T1, recombinant human ROR1-His (Sino Biological, 13968-H08H) (human, UniProt Q01973 30-406); test: BLI (Octet), ROR1-His on Anti-Penta-His or AR2G biosensor, IgG 30 to 0.021 nM, 1:1 fit
T1 construct: extracellular domain; Bought protein; also called ROR1-HIS protein; not shown: His tag
Protocol: A 96-well black microplate (greiner bio one) was mounted on a biosensor tray case, and 200 10×KB or DW was added to each of 8 wells. Then Anti Penta His biosensors or 8 AR2G biosensors (ForteBio, USA) were inserted to hydrate for 10 minutes. 600 of the assay samples were diluted 2-fold or 3-fold to the appropriate assay concentrations, using 1×KB or 10×KB to 30 to 0.021 nM. To immobilize the antigen, recombinant human ROR1-His (Sino Biological, 13968-H08H) was diluted to 1 /ML with 10×KB or Sodium Acetate pH5 buffer. Immobilization was fixed at a threshold of 0.3 nm in the loading step. The association assay was carried out for 3 to 10 minutes, and the dissociation assay was carried out for 20 minutes. According to the Octet program template, the buffer was placed in a new 96-well black microplate according to order. As Baseline1, 200 10×KB or DW was placed. Then 200 each of 1 /mL of the antigen to be loaded, the ROR1-HIS protein, was added. As Baseline2, 200 10×KB or 1×KB was placed. Then to each well 30 to 0.021 nM of the diluted antibody and 200 each of 10×KB buffer or 1×KB corresponding to a reference blank was added. The temperature of the test plate was fixed at 30° C. After all of the samples were introduced, the equipment was started, and after the assay was completed, results were uploaded to the Octet Analysis 90 software, with KD values analyzed through 1:1 fitting. By obtaining KD values through the Octet assay method, it was confirmed that the anti-ROR1 antibody had strong binding potential to ROR1 antigen.

[2] = target: T2, human ROR2 over-expressed on CHO cells (CHO-human ROR2) (human, UniProt Q01974 34-943); test: flow cytometry on CHO-S cells transiently over-expressing human ROR2, FITC anti-human Fc detection, MFI ratio to 2nd Ab alone
T2 construct: whole, on cells; Negative control; also called family protein human ROR2
From the text: (§1) For this experiment, using cell lines (FIG. 5 and FIG. 7, respectively) transiently (CHO-human ROR1, CHO-human ROR2, CHO-mouse ROR1) or stably (MC38-human ROR1) transfected with ROR1 gene to achieve artificial over-expression of ROR1 protein, an ROR1-expressing cell line (JeKo-1, Mino) (FIG. 6), a non ROR1-expressing cell line (MCF7) (FIG. 6) and a FACSCalibur (BD Biosciences) device was used to measure the degree to which anti-ROR1 antibody and ROR1 were bound, as follows. […] JeKo-1, Mino, CHO-human ROR1, CHO-mouse ROR1 and MC38-human ROR1 are all cell lines which express human ROR1 or mouse ROR1.
(§2) Specifically, after dissociating each cell line and washing in PBS, the number of cells was counted and adjusted to 2×10⁵ cells/200 PBS. Then the respective ROR1 monoclonal antibodies prepared in Embodiment 3 were diluted 5 times from 10 /mL or 10 /mL, then reacted for 1 hour at 4° C. After the reaction, the cells were washed in PBS, then FITC-marked constant region (Fc) specific antibody (Goat anti-human IgG FITC conjugate, Fc specific, Sigma, F9512, concentration 20 mg/ml) was suspended in 2 /1×10⁵ cells/200 PBS and reacted for 1 hour at 4° C. As for identification of the degree of expression of the transiently over-expressed human ROR1, human ROR2 and mouse ROR1, a commercially available FACS analysis antibody (anti-ROR1: R&D Systems, FAB 2000G, anti-ROR2: R&D, FAB20641P) was used. After reacting the cells were washed in PBS and analyzed using a FACSCalibur device. The negative control (2nd Ab) was only treated with FITC-marked constant region (Fc) specific antibody. The shifted readings for the respective experimental groups treated with ROR1 monoclonal antibody were compared against the shifted reading for the control group (MFI Ratio: MFI of anti-ROR1/MFI of 2nd Ab).

[3] = target: T3, human ROR1 expressed on the cell surface (human, UniProt Q01973 30-937); test: flow cytometry on MC38-human ROR1 cells, IgG titrated, FITC anti-human Fc detection, MFI ratio to 2nd Ab alone; log axis whose first tick is printed 0
T3 construct: whole, on cells; also called cell surface-expressed ROR1 antigen; ROR1 on JeKo-1, Mino, CHO-human ROR1, MC38-human ROR1 and other cancer cell lines
From the text: as §1, §2

[4] = target: T1, recombinant human ROR1-His (Sino …); test: ELISA, wells coated with human ROR1 protein (sheet: 'human ROR1'; text: ROR1-Fc or ROR1-His), IgG titrated, HRP anti-Fab detection, OD (450-650nm)
Protocol: (§3) Anti-ROR1 antibody antigen binding affinity was assessed using an ELISA-based solution binding assay. Specifically, a 96-well microtiter plate (Nunc-Immuno Plates), NUNC) was coated for 16 hours at 4° C. with the ROR1 protein described below at a concentration of 1 in PBS solution, and non-specific binding sites were blocked for 2 hours with 3% BSA (bovine serum albumin). Here, the ROR1 protein used was, in the case of human ROR1, the ROR1-Fc or recombinant human ROR1-His (Sino Biological, 13968-H08H) of Embodiment 1. The ROR1-His used in ELISA, as stated in the above sentence, was a protein from the Sino Biological company (13968-H08H), and the ROR1-His of Embodiment 1 or recombinant mouse ROR1 protein was used (Acrobiosystems, RO1-M5221-100 )
(§4) Subsequently, the anti-ROR1 antibodies prepared in Embodiment 3 were added at the concentrations stated in FIG. 2 to a 96-well microtiter plate, and binding capacity was analyzed using ELISA as follows. Specifically, after incubating for 2 hours, the plate was washed 5 times with PBS containing 0.05% Tween 20, then HRP-conjugated Fab multiclonal antibody reagent (Perce, 31414) was diluted to 1:10,000 and placed in the washed microtiter plate. After reacting for 1 hour at 37° C., the ROR1 antibodies bonded to the plate were detected. After the reaction, color development was performed using TMB (Tetramethylbenzidine, Sigma, T0440). The enzymatic reaction was stopped using 0.5 mol/L sulfuric acid, and absorbance at 450 nm and 650 nm was measured (450 nm-650 nm) using a micro plate reader (Molecular Device)

[5] = target: T4, recombinant mouse ROR1 protein (Acrobiosystems, RO1-M5221) (mouse, UniProt Q9Z139 30-403); test: ELISA, wells coated with recombinant mouse ROR1 protein, IgG titrated, HRP anti-Fab detection, OD (450-650nm)
T4 construct: Bought protein; also called mouse ROR1 antigen
Protocol: as §3, §4

[6] = target: T1, recombinant human ROR1-His (Sino …); test: ELISA, wells coated with human ROR1 protein (sheet: 'human ROR1'; text: ROR1-Fc or ROR1-His), IgG titrated, OD(450nm-650nm); x axis 'conc(nM)' numbered -5 to 2 (log10)
Protocol: as §3, §4

[7] = target: T4, recombinant mouse ROR1 protein …; test: ELISA, IgG on coated mouse ROR1
Protocol: as §3
Subsequently, the anti-ROR1 antibodies prepared in Embodiment 3 were added at the concentrations stated in FIG. 2 to a 96-well microtiter plate, and binding capacity was analyzed using ELISA as follows. […] After reacting for 1 hour at 37° C., the ROR1 antibodies bonded to the plate were detected. […] The enzymatic reaction was stopped using 0.5 mol/L sulfuric acid, and absorbance at 450 nm and 650 nm was measured (450 nm-650 nm) using a micro plate reader (Molecular Device)

[8] = target: T5, mouse ROR1 over-expressed on CHO cells (CHO-mouse ROR1) (mouse, UniProt Q9Z139 30-937); test: flow cytometry, CHO-mouse ROR1 cells
T5 construct: whole, on cells; also called cell surface-expressed mouse ROR1
From the text: as §1, §2

T1 sequence (Q01973 30-406): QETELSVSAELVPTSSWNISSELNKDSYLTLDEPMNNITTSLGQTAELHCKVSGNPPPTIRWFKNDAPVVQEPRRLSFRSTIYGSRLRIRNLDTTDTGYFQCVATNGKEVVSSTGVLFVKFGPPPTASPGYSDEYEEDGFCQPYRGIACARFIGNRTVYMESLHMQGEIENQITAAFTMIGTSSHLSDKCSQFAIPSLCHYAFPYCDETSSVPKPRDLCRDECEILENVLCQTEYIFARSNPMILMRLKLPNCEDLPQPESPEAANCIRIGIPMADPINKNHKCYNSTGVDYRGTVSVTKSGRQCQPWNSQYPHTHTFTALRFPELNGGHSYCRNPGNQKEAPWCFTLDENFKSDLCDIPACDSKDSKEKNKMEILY
T4 sequence (Q9Z139 30-403 limits assumed): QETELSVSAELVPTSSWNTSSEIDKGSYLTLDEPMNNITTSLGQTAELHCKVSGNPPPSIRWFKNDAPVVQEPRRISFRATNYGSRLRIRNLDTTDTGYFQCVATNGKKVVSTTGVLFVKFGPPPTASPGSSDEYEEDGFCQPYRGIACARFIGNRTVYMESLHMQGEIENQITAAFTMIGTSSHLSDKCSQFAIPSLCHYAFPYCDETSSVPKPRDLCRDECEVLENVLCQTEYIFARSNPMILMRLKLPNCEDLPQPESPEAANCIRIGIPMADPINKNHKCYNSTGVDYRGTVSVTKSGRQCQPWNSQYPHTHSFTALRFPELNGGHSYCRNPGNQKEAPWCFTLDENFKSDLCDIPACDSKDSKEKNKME
T3 sequence (Q01973 30-937): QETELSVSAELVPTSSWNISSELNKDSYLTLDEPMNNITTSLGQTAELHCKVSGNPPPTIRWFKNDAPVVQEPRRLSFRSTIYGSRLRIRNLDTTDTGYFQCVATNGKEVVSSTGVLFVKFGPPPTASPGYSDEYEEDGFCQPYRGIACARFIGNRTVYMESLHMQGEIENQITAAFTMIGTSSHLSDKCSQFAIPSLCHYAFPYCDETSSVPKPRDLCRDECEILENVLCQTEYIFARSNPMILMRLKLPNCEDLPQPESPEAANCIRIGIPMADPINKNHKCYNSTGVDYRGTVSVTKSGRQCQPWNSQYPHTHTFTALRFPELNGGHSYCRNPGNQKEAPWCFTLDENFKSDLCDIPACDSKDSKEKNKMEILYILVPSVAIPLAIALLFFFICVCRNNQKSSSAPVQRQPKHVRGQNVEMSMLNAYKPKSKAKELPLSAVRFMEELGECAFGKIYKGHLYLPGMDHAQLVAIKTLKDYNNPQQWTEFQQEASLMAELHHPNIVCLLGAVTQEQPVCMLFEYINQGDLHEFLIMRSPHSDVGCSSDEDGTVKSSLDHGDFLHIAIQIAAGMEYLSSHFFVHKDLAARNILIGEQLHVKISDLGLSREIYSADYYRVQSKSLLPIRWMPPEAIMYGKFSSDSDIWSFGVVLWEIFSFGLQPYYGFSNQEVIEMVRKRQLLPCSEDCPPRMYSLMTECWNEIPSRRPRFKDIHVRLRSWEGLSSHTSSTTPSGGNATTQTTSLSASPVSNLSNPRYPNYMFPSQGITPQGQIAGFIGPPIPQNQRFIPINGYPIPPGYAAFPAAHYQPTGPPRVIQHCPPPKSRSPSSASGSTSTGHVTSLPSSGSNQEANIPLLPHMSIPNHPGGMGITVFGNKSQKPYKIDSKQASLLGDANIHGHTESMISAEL
T2 sequence (Q01974 34-943): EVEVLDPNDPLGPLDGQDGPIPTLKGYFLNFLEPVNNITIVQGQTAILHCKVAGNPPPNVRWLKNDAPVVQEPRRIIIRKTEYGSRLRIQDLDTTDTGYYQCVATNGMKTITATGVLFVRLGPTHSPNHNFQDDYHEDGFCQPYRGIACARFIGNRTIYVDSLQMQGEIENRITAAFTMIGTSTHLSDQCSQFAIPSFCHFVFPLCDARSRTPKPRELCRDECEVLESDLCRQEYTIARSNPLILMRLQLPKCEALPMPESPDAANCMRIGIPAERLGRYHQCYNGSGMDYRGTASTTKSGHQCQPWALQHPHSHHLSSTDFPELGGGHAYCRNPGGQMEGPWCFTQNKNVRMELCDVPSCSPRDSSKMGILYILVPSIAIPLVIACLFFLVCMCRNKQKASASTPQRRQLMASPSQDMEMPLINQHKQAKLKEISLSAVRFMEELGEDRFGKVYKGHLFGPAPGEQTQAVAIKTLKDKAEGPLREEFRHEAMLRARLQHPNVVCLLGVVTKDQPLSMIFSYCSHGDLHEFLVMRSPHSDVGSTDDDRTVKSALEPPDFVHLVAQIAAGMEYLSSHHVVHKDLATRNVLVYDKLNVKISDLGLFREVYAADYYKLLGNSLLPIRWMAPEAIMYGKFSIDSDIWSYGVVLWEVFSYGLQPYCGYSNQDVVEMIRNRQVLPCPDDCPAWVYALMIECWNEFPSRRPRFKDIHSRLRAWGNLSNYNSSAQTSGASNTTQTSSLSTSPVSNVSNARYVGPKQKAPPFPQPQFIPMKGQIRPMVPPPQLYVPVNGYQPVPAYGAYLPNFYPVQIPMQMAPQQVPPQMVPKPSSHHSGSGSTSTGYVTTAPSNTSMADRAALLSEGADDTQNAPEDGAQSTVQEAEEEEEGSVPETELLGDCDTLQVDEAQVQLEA
T5 sequence (Q9Z139 30-937): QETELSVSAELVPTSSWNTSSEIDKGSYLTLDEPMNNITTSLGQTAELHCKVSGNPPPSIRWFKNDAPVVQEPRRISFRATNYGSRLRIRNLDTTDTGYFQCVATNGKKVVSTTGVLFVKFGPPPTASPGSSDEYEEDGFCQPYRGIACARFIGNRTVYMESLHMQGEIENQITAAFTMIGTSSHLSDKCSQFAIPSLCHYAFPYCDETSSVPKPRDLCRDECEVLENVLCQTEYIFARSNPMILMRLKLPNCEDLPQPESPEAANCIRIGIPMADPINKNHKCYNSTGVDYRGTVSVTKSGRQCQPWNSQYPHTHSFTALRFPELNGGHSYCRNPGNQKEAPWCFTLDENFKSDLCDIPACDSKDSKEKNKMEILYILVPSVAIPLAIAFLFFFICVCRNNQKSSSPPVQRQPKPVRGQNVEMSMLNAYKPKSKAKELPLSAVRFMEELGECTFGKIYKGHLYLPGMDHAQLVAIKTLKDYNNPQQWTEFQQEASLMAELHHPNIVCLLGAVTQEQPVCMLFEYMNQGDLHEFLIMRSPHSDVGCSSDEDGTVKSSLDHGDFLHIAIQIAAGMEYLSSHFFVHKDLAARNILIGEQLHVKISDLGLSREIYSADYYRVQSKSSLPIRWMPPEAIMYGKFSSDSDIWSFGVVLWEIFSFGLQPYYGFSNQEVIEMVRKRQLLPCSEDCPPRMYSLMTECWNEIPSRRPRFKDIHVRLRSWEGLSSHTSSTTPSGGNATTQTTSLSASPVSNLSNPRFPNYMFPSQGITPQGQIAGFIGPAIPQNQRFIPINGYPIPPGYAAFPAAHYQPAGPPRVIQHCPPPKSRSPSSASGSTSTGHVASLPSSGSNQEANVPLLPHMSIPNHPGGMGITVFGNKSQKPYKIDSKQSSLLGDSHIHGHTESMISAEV

Binder	Kd [1]	koff [1]	kon [1]	binding result [2]	EC50 (read off the curve) [3]	EC50 (read off the curve) [4]	EC50 (read off the curve) [5]	EC50 (read off the curve) [6]	binding result [7]	binding result [8]
anti-ROR1 IgG antibody AB4 (antibody, V domains shown, Full IgG form (human IgG1 constant region, lambda light chain), expressed in CHO-S cells) VH: EVQLLESGGGLVQPGGSLRLSCAASGFTFSSYDMSWVRQAPGKGLEWVSWISPDSGSIYYADSVKGRFTISRDNSKNTLYLQMNSLRAEDTAVYYCARPTGRFDYWGQGTLVTVSS VL: QSVLTQPPSASGTPGQRVTISCSGSSSNIGNNNVNWYQQLPGTAPKLLIYYDNKRPSGVPDRFSGSKSGTSASLAISGLRSEDEADYYCGTWDASLSGYVFGGGTKLTVLG	0.0639 nM	0.000116 s⁻¹	1.81e+06 M⁻¹ s⁻¹	no binding	~0.1 µg/mL	~0.2 nM	~0.2 nM			
anti-ROR1 IgG antibody D2B12 (antibody, V domains shown, Full IgG form (human IgG1 constant region, lambda light chain), expressed in CHO-S cells) VH: EVQLLESGGGLVQPGGSLRLSCAASGFTFSNYDMSWVRQAPGKGLEWVSSISPSSGSSIYYADSVKGRFTISRDNSKNTLYLQMNSLRAEDTAVYYCAKAPGWCQAPSCYYDNAMDVWGQGTLVTVSS VL: QSVLTQPPSASGTPGQRVTISCSGSSSNIGNNDVSWYQQLPGTAPKLLIYDDSQRPSGVPDRFSGSKSGTSASLAISGLRSEDEADYYCGAWDDSLSGYVFGGGTKLTVLG	0.803 nM	0.000361 s⁻¹	450000 M⁻¹ s⁻¹	no binding	~0.2 µg/mL	~0.2 nM	~0.3 nM			
anti-ROR1 IgG antibody A2F2 (antibody, V domains shown, Full IgG form (human IgG1 constant region, lambda light chain), expressed in CHO-S cells) VH: EVQLLESGGGLVQPGGSLRLSCAASGFTFSDYYMSWVRQAPGKGLEWVSSISPDGSNTYYADSVKGRFTISRDNSKNTLYLQMNSLRAEDTAVYYCAKNLRAFDYWGQGTLVTVSS VL: QSVLTQPPPASGTPGQRVTISCSGSSSNIGSNTVYWYQQLPGTAPKLLIYANSQRPSGVPDRFSGSKSGTSASLAISGLRSEDEADYYCGSWDYSLSGYVFGGGTKLTVLG	0.0773 nM	0.000119 s⁻¹	1.53e+06 M⁻¹ s⁻¹	no binding	~0.1 µg/mL	~0.2 nM	~0.3 nM	~0.04 nM		
anti-ROR1 IgG antibody A2F2 M1 (antibody, V domains shown, Full IgG form (human IgG1 constant region, lambda light chain), expressed in CHO-S cells) VH: EVQLLESGGGLVQPGGSLRLSCAASGFTFSDYYMSWVRQAPGKGLEWVSSISPDASNTYYADSVKGRFTISRDNSKNTLYLQMNSLRAEDTAVYYCAKNLRAFDYWGQGTLVTVSS VL: QSVLTQPPPASGTPGQRVTISCSGSSSNIGSNTVYWYQQLPGTAPKLLIYANSQRPSGVPDRFSGSKSGTSASLAISGLRSEDEADYYCGSWDYSLSGYVFGGGTKLTVLG								~0.04 nM	binds	binds
anti-ROR1 IgG antibody BA6 M1 (antibody, V domains shown, Full IgG form (human IgG1 constant region, lambda light chain), expressed in CHO-S cells) VH: EVQLLESGGGLVQPGGSLRLSCAASGFTFSNYDMSWVRQAPGKGLEWVSAIYHSGSSKYYADSVKGRFTISRDNSKNTLYLQMNSLRAEDTAVYYCARGGNAAWDTGFDYWGQGTLVTVSS VL: QSVLTQPPSASGTPGQRVTISCSGSSSNIGSNDVSWYQQLPGTAPKLLIYYDNNRPSGVPDRFSGSKSGTSASLAISGLRSEDEADYYCGAWDDSLSGYVFGGGTKLTVLG								~0.06 nM	binds	binds

The remaining binders from weak to strong by Kd [1], led by results:

Kd [1]	koff [1]	kon [1]	binding result [2]	EC50 (read off the curve) [3]	EC50 (read off the curve) [4]	EC50 (read off the curve) [5]	EC50 (read off the curve) [6]	binding result [7]	binding result [8]	Binder
0.152 nM	0.000338 s⁻¹	2.23e+06 M⁻¹ s⁻¹	no binding		~0.1 nM	~0.1 nM				anti-ROR1 IgG antibody DG6 (antibody, V domains shown, Full IgG form (human IgG1 constant region, lambda light chain), expressed in CHO-S cells) VH: EVQLLESGGGLVQPGGSLRLSCAASGFTFSDYDMSWVRQAPGKGLEWVSVISPDGGSIYYADSVKGRFTISRDNSKNTLYLQMNSLRAEDTAVYYCARDVVECNMNPCSYDNAMDVWGQGTLVTVSS VL: QSVLTQPPSASGTPGQRVTISCSGSSSNIGSNYVSWYQQLPGTAPKLLIYDDSHRPSGVPDRFSGSKSGTSASLAISGLRSEDEADYYCGAWDDSLSGYVFGGGTKLTVLG
0.024 nM	3.31e-05 s⁻¹	1.38e+06 M⁻¹ s⁻¹	no binding	~0.2 µg/mL	~0.6 nM	~0.7 nM				anti-ROR1 IgG antibody A2F3 (antibody, V domains shown, Full IgG form (human IgG1 constant region, lambda light chain), expressed in CHO-S cells) VH: EVQLLESGGGLVQPGGSLRLSCAASGFTFSSYDMSWVRQAPGKGLEWVSWISPGGGSKYYADSVKGRFTISRDNSKNTLYLQMNSLRAEDTAVYYCARVNGRFDYWGQGTLVTVSS VL: QSVLTQPPSASGTPGQRVTISCSGSSSNIGNNNVSWYQQLPGTAPKLLIYADSHRPSGVPDRFSGSKSGTSASLAISGLRSEDEADYYCATWDYSLSGYVFGGGTKLTVLG
